# Measured values reported in patent publication US20250188434A1 (VERRA THERAPEUTICS, published 2025).
# Where a chain is given by its changes, count along the chain named.
# T1: ADAM9 (human or mouse ADAM9, enzyme of the in vitro inhibition assay) (human or mouse, UniProt Q13443 206-697, limits assumed)
# T1 sequence (looked up): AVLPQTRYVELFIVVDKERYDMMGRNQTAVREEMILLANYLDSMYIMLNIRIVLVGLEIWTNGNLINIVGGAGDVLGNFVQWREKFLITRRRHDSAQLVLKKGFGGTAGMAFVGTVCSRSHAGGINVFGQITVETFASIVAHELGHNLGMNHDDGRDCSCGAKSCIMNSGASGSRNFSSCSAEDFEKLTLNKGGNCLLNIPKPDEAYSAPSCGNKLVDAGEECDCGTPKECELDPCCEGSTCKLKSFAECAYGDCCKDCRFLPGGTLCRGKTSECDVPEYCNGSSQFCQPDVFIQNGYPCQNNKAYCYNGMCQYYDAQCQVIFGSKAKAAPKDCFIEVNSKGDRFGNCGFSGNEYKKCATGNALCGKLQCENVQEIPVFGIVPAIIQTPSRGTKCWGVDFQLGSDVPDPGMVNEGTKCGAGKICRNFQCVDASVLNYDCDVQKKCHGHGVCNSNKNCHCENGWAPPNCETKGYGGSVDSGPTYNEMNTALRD
# T2: Human Meprin beta (human, UniProt Q16820 62-652, limits assumed)
# T2 sequence (looked up): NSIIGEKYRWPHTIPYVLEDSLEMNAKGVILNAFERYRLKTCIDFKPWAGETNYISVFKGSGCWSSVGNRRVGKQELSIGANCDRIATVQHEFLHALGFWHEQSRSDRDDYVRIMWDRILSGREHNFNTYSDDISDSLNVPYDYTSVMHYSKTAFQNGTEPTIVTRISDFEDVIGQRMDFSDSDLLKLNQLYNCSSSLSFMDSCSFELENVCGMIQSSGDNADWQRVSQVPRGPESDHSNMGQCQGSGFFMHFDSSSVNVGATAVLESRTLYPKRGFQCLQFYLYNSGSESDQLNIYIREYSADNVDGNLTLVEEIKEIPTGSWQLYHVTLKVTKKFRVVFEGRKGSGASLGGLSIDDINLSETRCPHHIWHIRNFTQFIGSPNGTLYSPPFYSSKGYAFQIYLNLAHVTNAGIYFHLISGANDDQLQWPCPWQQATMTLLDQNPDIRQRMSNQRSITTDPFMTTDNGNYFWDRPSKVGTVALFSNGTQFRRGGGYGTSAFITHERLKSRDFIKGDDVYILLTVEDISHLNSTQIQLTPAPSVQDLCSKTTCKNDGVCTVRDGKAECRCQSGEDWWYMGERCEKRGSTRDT
# B1: wild type human ADAM9 prodomain peptide (SEQ ID NO: 2) (peptide)
# chain: ARPGFQQTSHLSSYEIITPWRLTRERREAPRPYSKQVSYVIQAEGKEHIIHLERNKDLLPEDFVVYTYNKEGTLITDHPNIQNHCHYRGYVEGVHNSSIALSDCFGLRGLLHLENASYGIEPLQNSSHFEHIIYRMDDVYKEPLKCGVSNKDIEKETAKDEEEEPPSMTQLLRR
# B2: modified ADAM9 prodomain peptide SEQ ID NO: 19 (peptide)
# chain: B1 chain with R27A, C85S, C104S, C146S, E161N, E163N
# B3: Chemically modified SEQ ID NO: 2 (wild type ADAM9 prodomain labelled with ALEXA FLUOR 647 maleimide ester) (peptide)
# chain: B1 chain
# modifications: ALEXA FLUOR 647 brand maleimide ester on its three cysteines (85, 104 and 146 of SEQ ID NO: 2)
# B4: modified ADAM9 prodomain peptide SEQ ID NO: 16 (peptide)
# chain: B1 chain with R27S, C85S, C104S, C146S
# B5: modified ADAM9 prodomain peptide SEQ ID NO: 18 (peptide)
# chain: B1 chain with R27A, C85S, C104S, D138S, C146S
# B6: modified ADAM9 prodomain peptide SEQ ID NO: 14 (peptide)
# chain: B1 chain with R26A, D62A, C85S, C104S, C146S
# B7: modified ADAM9 prodomain peptide SEQ ID NO: 12 (peptide)
# chain: B1 chain with R27A, C85S, C104S, C146S
# B8: modified ADAM9 prodomain peptide SEQ ID NO: 11 (peptide)
# chain: B1 chain with R24A, C85S, C104S, C146S
# B9: pegylated SEQ ID NO: 21 (peptide)
# chain: B1 chain with R27A, C85S, C104S
# modifications: pegylated at cysteine 146 (PEG size not stated for this construct)
# B10: modified ADAM9 prodomain peptide SEQ ID NO: 13 (peptide)
# chain: B1 chain with C85S, C104S, C146S
# B11: modified ADAM9 prodomain peptide SEQ ID NO: 10 (peptide)
# chain: B1 chain with R26A, C85S, C104S, C146S
# B12: 25-1 (SEQ ID NO: 21), as labelled in Table 5 (peptide)
# chain: B1 chain with R27A, C85S, C104S
# B13: modified ADAM9 prodomain peptide SEQ ID NO: 17 (peptide)
# chain: QTSHLSSYEIITPWRLTRERAEAPRPYSKQVSYVIQAEGKEHIIHLERNKDLLPEDFVVYTYNKEGTLITDHPNIQNHSHYRGYVEGVHNSSIALSDSFGLRGLLHLENASYGIEPLQNSSHFEHIIYRMDDVYKEPLKSGVSNKDIEKETAKDEEEEPPSMTQLLRR
# B14: pegylated SEQ ID NO: 22 (peptide)
# chain: GSCGSARPGFQQTSHLSSYEIITPWRLTRERAEAPRPYSKQVSYVIQAEGKEHIIHLERNKDLLPEDFVVYTYNKEGTLITDHPNIQNHSHYRGYVEGVHNSSIALSDSFGLRGLLHLENASYGIEPLQNSSHFEHIIYRMDDVYKEPLKSGVSNKDIEKETAKDEEEEPPSMTQLLRR
# modifications: pegylated at the N-terminus, on the cysteine of the added N-terminal pentapeptide (PEG size not stated for this construct)
# B15: 25-2 (SEQ ID NO: 22), as labelled in Table 5 (peptide)
# chain: B14 chain
# B16: pegylated SEQ ID NO: 20 (peptide)
# chain: ARPGFQQTSHLSSYEIITPWRLTREAREAPRPYSKQVSYVIQAEGKEHIIHLERNKDLLPEDFVVYTYNKEGTLITDHPNIQNHSHYRGYVEGVHNSSIALSDSFGLRGLLHLENASYGIEPLQNSSHFEHIIYRMDDVYKEPLKSGVSNKDIEKETAKDEEEEPPSMTQLLRRGSGSC
# modifications: 20 kDa maleimide PEG on the cysteine of the pentapeptide added to the C-terminus
# B17: 25-3 (SEQ ID NO: 23), as labelled in Table 5 (peptide)
# chain: B16 chain with A26R, R27A
# B18: pegylated SEQ ID NO: 23 (peptide)
# chain: B16 chain with A26R, R27A
# modifications: pegylated at the C-terminus, on the cysteine of the added C-terminal pentapeptide (PEG size not stated for this construct)
# How the values were obtained:
# Experiment in all cases: cell-based or functional assay
# [1] = target: T1, ADAM9 (human or mouse ADAM9, enzyme of …)
# [2] = target: T2, Human Meprin beta
# [3] = target: T1, ADAM9 (human or mouse ADAM9, enzyme of …); remark: listed apart in the source
Binder,"IC50, inhibition of ADAM9 activity on FRET substrate PEPDAB064; prodomain from inclusion bodies [1]",other results
B1,20 nM,"IC50, inhibition of activated Meprin beta on fluorescent substrate PEPDAB022 [2]: 200 nM; IC50, inhibition of ADAM9 activity; wild type prodomain assayed 1 week after dialysis, when dimer formation had occurred [3]: 120 nM"
B2,33 nM,–
B3,125 nM,–
B4,29 nM,–
B5,181 nM,–
B6,136 nM,–
B7,41 nM,"IC50, inhibition of ADAM9 activity on FRET substrate PEPDAB064; prodomain from soluble fraction [1]: 39 nM; IC50, inhibition of activated Meprin beta on fluorescent substrate PEPDAB022 [2]: 7400 nM"
B8,> 200 nM,"IC50, inhibition of ADAM9 activity on FRET substrate PEPDAB064; prodomain from soluble fraction [1]: 13.8 nM"
B9,40.5 nM,–
B10,46 nM,–
B11,–,"IC50, inhibition of ADAM9 activity on FRET substrate PEPDAB064; prodomain from soluble fraction [1]: 49 nM; IC50, inhibition of ADAM9 activity on FRET substrate PEPDAB064; prodomain refolded from inclusion bodies (aggregating) [1]: > 200 nM"
B12,–,"IC50, inhibition of activated Meprin beta on fluorescent substrate PEPDAB022 [2]: 2800 nM"
B13,185 nM,–
B14,60 nM,–
B15,–,"IC50, inhibition of activated Meprin beta on fluorescent substrate PEPDAB022 [2]: 3800 nM"
B16,16 nM,–
B17,–,"IC50, inhibition of activated Meprin beta on fluorescent substrate PEPDAB022 [2]: 5700 nM"
B18,39.9 nM,–
